Experimental data reported in the Human Domainome abundance scans (Beltran et al. 2025).
± gives the uncertainty stated by the source.

B1: GA-binding protein alpha chain, residues 172 to 250; numbered along this chain, Q06546 (parent)
chain: GYRKEQERLGIPYDPIQWSTDQVLHWVVWVMKEFSMTDIDLTTLNISGRELCSLNQEDFFQRVPRGEILWSHLELLRKY

Variants of: B1
Assay: abundance fitness (aPCA) (normalised: wild type 0, dead -1); higher = more abundant; growth selection in yeast, the domain comes from the species named
Settings: Homo sapiens
In the case of GYRKEQERLGIPYDPIQWCTDQVLHWVVWVMKEFSMTDIDLTTLNISGRELCSLNQEDFFQRVPRGEILWSHLELLRKY, the abundance fitness is reported as -0.487 ± 0.065. For GYRKEQERLGIPYDPIQWRTDQVLHWVVWVMKEFSMTDIDLTTLNISGRELCSLNQEDFFQRVPRGEILWSHLELLRKY, the abundance fitness was -0.14 ± 0.029. GYRKEQERLGIPYDPIQWNTDQVLHWVVWVMKEFSMTDIDLTTLNISGRELCSLNQEDFFQRVPRGEILWSHLELLRKY showed an abundance fitness of -0.053 ± 0.11. GYRKEQERLGIPYDPIQWQTDQVLHWVVWVMKEFSMTDIDLTTLNISGRELCSLNQEDFFQRVPRGEILWSHLELLRKY gave an abundance fitness of -0.225 ± 0.053. Variant GYRKEQERLGIPYDPIQWPTDQVLHWVVWVMKEFSMTDIDLTTLNISGRELCSLNQEDFFQRVPRGEILWSHLELLRKY has an abundance fitness of -0.82 ± 0.1. For GYRKEQERLGIPYDPIQWDTDQVLHWVVWVMKEFSMTDIDLTTLNISGRELCSLNQEDFFQRVPRGEILWSHLELLRKY, the abundance fitness was -0.048 ± 0.072. GYRKEQERLGIPYDPIQWTTDQVLHWVVWVMKEFSMTDIDLTTLNISGRELCSLNQEDFFQRVPRGEILWSHLELLRKY gave an abundance fitness of 0.05 ± 0.073. GYRKEQERLGIPYDPIQWKTDQVLHWVVWVMKEFSMTDIDLTTLNISGRELCSLNQEDFFQRVPRGEILWSHLELLRKY showed an abundance fitness of -0.281 ± 0.077. Variant GYRKEQERLGIPYDPIQWVTDQVLHWVVWVMKEFSMTDIDLTTLNISGRELCSLNQEDFFQRVPRGEILWSHLELLRKY has an abundance fitness of -0.996 ± 0.1. Work on GYRKEQERLGIPYDPIQWATDQVLHWVVWVMKEFSMTDIDLTTLNISGRELCSLNQEDFFQRVPRGEILWSHLELLRKY yielded an abundance fitness of -0.664 ± 0.062. GYRKEQERLGIPYDPIQWGTDQVLHWVVWVMKEFSMTDIDLTTLNISGRELCSLNQEDFFQRVPRGEILWSHLELLRKY showed an abundance fitness of -0.34 ± 0.035. In the case of GYRKEQERLGIPYDPIQWLTDQVLHWVVWVMKEFSMTDIDLTTLNISGRELCSLNQEDFFQRVPRGEILWSHLELLRKY, the abundance fitness is reported as -0.864 ± 0.094. GYRKEQERLGIPYDPIQWWTDQVLHWVVWVMKEFSMTDIDLTTLNISGRELCSLNQEDFFQRVPRGEILWSHLELLRKY showed an abundance fitness of -0.927 ± 0.11. GYRKEQERLGIPYDPIQWYTDQVLHWVVWVMKEFSMTDIDLTTLNISGRELCSLNQEDFFQRVPRGEILWSHLELLRKY gave an abundance fitness of -0.65 ± 0.14. In the case of GYRKEQERLGIPYDPIQWETDQVLHWVVWVMKEFSMTDIDLTTLNISGRELCSLNQEDFFQRVPRGEILWSHLELLRKY, the abundance fitness is reported as -0.311 ± 0.057. GYRKEQERLGIPYDPIQWMTDQVLHWVVWVMKEFSMTDIDLTTLNISGRELCSLNQEDFFQRVPRGEILWSHLELLRKY gave an abundance fitness of -0.836 ± 0.14. For GYRKEQERLGIPYDPIQWHTDQVLHWVVWVMKEFSMTDIDLTTLNISGRELCSLNQEDFFQRVPRGEILWSHLELLRKY, the abundance fitness was -0.096 ± 0.17. GYRKEQERLGIPYDPIQWFTDQVLHWVVWVMKEFSMTDIDLTTLNISGRELCSLNQEDFFQRVPRGEILWSHLELLRKY showed an abundance fitness of -0.849 ± 0.12. For GYRKEQERLGIPYDPIQWSTDFVLHWVVWVMKEFSMTDIDLTTLNISGRELCSLNQEDFFQRVPRGEILWSHLELLRKY, the abundance fitness was -0.792 ± 0.16. GYRKEQERLGIPYDPIQWSTDEVLHWVVWVMKEFSMTDIDLTTLNISGRELCSLNQEDFFQRVPRGEILWSHLELLRKY showed an abundance fitness of 0 ± 0.027. Variant GYRKEQERLGIPYDPIQWSTDDVLHWVVWVMKEFSMTDIDLTTLNISGRELCSLNQEDFFQRVPRGEILWSHLELLRKY has an abundance fitness of -0.072 ± 0.11. For GYRKEQERLGIPYDPIQWSTDIVLHWVVWVMKEFSMTDIDLTTLNISGRELCSLNQEDFFQRVPRGEILWSHLELLRKY, the abundance fitness was -0.899 ± 0.18. For GYRKEQERLGIPYDPIQWSTDAVLHWVVWVMKEFSMTDIDLTTLNISGRELCSLNQEDFFQRVPRGEILWSHLELLRKY, the abundance fitness was -0.295 ± 0.052. Work on GYRKEQERLGIPYDPIQWSTDCVLHWVVWVMKEFSMTDIDLTTLNISGRELCSLNQEDFFQRVPRGEILWSHLELLRKY yielded an abundance fitness of -0.543 ± 0.12. GYRKEQERLGIPYDPIQWSTDGVLHWVVWVMKEFSMTDIDLTTLNISGRELCSLNQEDFFQRVPRGEILWSHLELLRKY gave an abundance fitness of -0.88 ± 0.063. Variant GYRKEQERLGIPYDPIQWSTDHVLHWVVWVMKEFSMTDIDLTTLNISGRELCSLNQEDFFQRVPRGEILWSHLELLRKY has an abundance fitness of -0.052 ± 0.085. In the case of GYRKEQERLGIPYDPIQWSTFQVLHWVVWVMKEFSMTDIDLTTLNISGRELCSLNQEDFFQRVPRGEILWSHLELLRKY, the abundance fitness is reported as -0.391 ± 0.094. With GYRKEQERLGIPYDPIQWSTWQVLHWVVWVMKEFSMTDIDLTTLNISGRELCSLNQEDFFQRVPRGEILWSHLELLRKY the abundance fitness was -0.185 ± 0.04. For GYRKEQERLGIPYDPIQWSTVQVLHWVVWVMKEFSMTDIDLTTLNISGRELCSLNQEDFFQRVPRGEILWSHLELLRKY, the abundance fitness was -0.172 ± 0.035. In the case of GYRKEQERLGIPYDPIQWSTIQVLHWVVWVMKEFSMTDIDLTTLNISGRELCSLNQEDFFQRVPRGEILWSHLELLRKY, the abundance fitness is reported as -0.36 ± 0.068. In the case of GYRKEQERLGIPYDPIQWSTGQVLHWVVWVMKEFSMTDIDLTTLNISGRELCSLNQEDFFQRVPRGEILWSHLELLRKY, the abundance fitness is reported as -0.002 ± 0.031. In the case of GYRKEQERLGIPYDPIQWSTNQVLHWVVWVMKEFSMTDIDLTTLNISGRELCSLNQEDFFQRVPRGEILWSHLELLRKY, the abundance fitness is reported as -0.044 ± 0.073. GYRKEQERLGIPYDPIQWSTAQVLHWVVWVMKEFSMTDIDLTTLNISGRELCSLNQEDFFQRVPRGEILWSHLELLRKY gave an abundance fitness of -0.031 ± 0.044. GYRKEQERLGIPYDPIQWSTHQVLHWVVWVMKEFSMTDIDLTTLNISGRELCSLNQEDFFQRVPRGEILWSHLELLRKY showed an abundance fitness of -0.049 ± 0.054.
